The text below walks through data of the supplement of paper PMC9170038.

In the series the test system is MS2 coat protein. The experiment in a line: apparent KD of MS2 coat protein; higher = weaker reporter binding. The following applies: Eterna round: R107. Summed up:
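Apparent KD per design is the median of normalised cluster binding-curve fits. Designed RNA switches transcribed on-chip from Illumina sequencing clusters were titrated with SNAP-549-labelled MS2 coat protein in twofold steps from 0.7 or 1.5 nM to 3 µM, with 0.8–1.5 h down to 10–20 min per step. Buffer: 100 mM Tris-HCl pH 7.5, 80 mM KCl, 4 mM MgCl2, without or with constant ligand.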

The mark [1] stands for this setting: input ligand: theophylline 20 uM.
[2] abbreviates: input ligand: tryptophan 2.4 mM.
[3] abbreviates: input ligand: theophylline 2 mM.

As for “CUCUGAGUGAGUAAUCACUCAGAGGCGGAUACCAGCGAGGUCCAUCGCCCUUGGCAGCCGAACAUGAGGAUCACCCAUGUCGGUA [#1 Same State - Theophylline A Attempt #24 (HarryS)]”, the “apparent KD of MS2 coat protein” value by setting is: (input ligand: arginine 13.2 mM) 8.82 nM; under setting [1], 12.2 nM; under setting [2], 11.7 nM.
On the same counts, the results for “CUGCCAUGCAGAGAUACCAGUGAGCUCAAAACAUGAGGAUCACCCAUGUAAAUUGCCGAUCACCCUUGGCAGCUCUGCAUGGCAG [}=%#^]” are 13.7 nM, 10.3 nM and 9.55 nM.
With “CUUAUACAUGAGGAUCACCCAUGUGGUGAUACCAGCCACGAUCAAGGCCCUUGGCAGCACAAAGGGAAUAAUAUGAUUACAAAAC [theeternabot_sameState_MS2_Theo_A_6]”, the “apparent KD of MS2 coat protein” value is 117 nM (input ligand: arginine 13.2 mM), 566 nM under setting [1] and 489 nM under setting [2].
In the same order, the values of “CUUCUGAAAGCAAUGGGAUCUGUUAUUGAUACCAGCAUCUGAUUUUGCCCUUGGCAGCAAGAAACAUGAGGAUCACCCAUGUGGC [theeternabot_exclusion_MS2_Theo_A_19]” are 21.4 nM, 23.1 nM and 21 nM.
Consider “CUUGUGCUGACGGCCGCCACUUUAUGGGAGUCCUGUUCUGAUUGAUACAUGAGGAUCACCCAUGUAAGGACCGGGUCGUACCAUA [theeternabot_exclusion_MS2_Trp_B_22]”, for which the “apparent KD of MS2 coat protein” value stood at 22.7 nM (input ligand: arginine 13.2 mM), 27.4 nM under setting [1] and 22.7 nM under setting [3].
Turning to “CUUGUGGGCGGAAGGAGCGCGAUUACAUAACAUGAGGAUCACCCAUGUAAGAAAUUAUUCAUGCAGGUAGGUCGCCGUUCGUGGG [Same State Arginine B GF9]”, the “apparent KD of MS2 coat protein” value came out at 24.8 nM (input ligand: arginine 13.2 mM); 23.8 nM (input ligand: none); 30.9 nM under setting [1]; 24.1 nM under setting [3]; 25.2 nM under setting [2].
As to “GACAUGAGGAUCACCCAUGUACCGCGAGAAGGAGCGCGGAUAAACGCAGGUAGGUCGCUCGUGGGCUUGUAUUCAAUCGUAAGCU [Anlaaranan]”, the “apparent KD of MS2 coat protein” value was found to be 48.2 nM (input ligand: arginine 13.2 mM); 108 nM (input ligand: none); 187 nM under setting [1]; 207 nM under setting [3]; 80.7 nM under setting [2].
In the same order, the values of “GACAUGAGGAUCACCCAUGUUGACUAUGAAGGAGCGUCGGAAAUGACAGGUAGGUCGCAUAGUCGACCUUGUAUUUUGUGUGUUU [EAA #9]” are 12.7 nM, 10.4 nM, 17.4 nM, 12.5 nM and 11.6 nM.
Turning to “GACCACAUGAGGAUCACCCAUGUCUUGGUCCGAGGACCGGUACGGCCGCCACUCGAGAGCCGUACAAAUAAACGGAGUGCCAUCA [theeternabot_sameState_MS2_Trp_A_31]”, the “apparent KD of MS2 coat protein” value is, setting by setting: (input ligand: arginine 13.2 mM) 12.5 nM; under setting [1], 19.6 nM; under setting [3], 15.5 nM.
In the same order, the values of “GACCCAUGAGUUGUAAAAGCUCAUGGGUCGCGAGGACCGGUACGGCCGCCACUCGGCUGUACAUGAGGAUCACCCAUGUCAGGGU [#1 Same State - Tryptophan A Attempt #27 (HarryS)]” are 44.8 nM, 568 nM and 527 nM.
“GAGCUGAUGUAGAGCGAAUAUUCGAGAGAUACCAGUACAGAAAUGUACCCUUGGCAGCUCAACUUUACAUGAGGAUCACCCAUGU [Ex Theophylline A 23]”: the “apparent KD of MS2 coat protein” value (input ligand: arginine 13.2 mM) is 15 nM, the “apparent KD of MS2 coat protein” value under setting [1] came out at 15.6 nM and the “apparent KD of MS2 coat protein” value under setting [2] turned out to be 14.7 nM.
For the sequence “GAGUACACUACGGCCGCCACUCAAGGAGCUACAUAGCUCCUAGACAUGAGGAUCACCCAUGUACCGAGGACCGGGUAGAUCCUUA [Same State Typrtophan B GF2]”, the “apparent KD of MS2 coat protein” value stood at 129 nM (input ligand: arginine 13.2 mM), 246 nM under setting [1] and 294 nM under setting [3].
As to “GAUGAUAUUGCAGAUACCAGACACAUGAGGAUCACCCAUGUGUCCUCGCCAGCGGCAUGUGUCCCUUGGCAGCUGCGAUAUCAUC [Colombia]”, the “apparent KD of MS2 coat protein” value is, setting by setting: (input ligand: arginine 13.2 mM) 11.1 nM; (input ligand: none) 11.1 nM; under setting [1], 17.7 nM; under setting [3], 41.2 nM; under setting [2], 12.1 nM.
Take “GAUUUAACAAAAGUUAGAUCAGUGGGUGAACGAGGACCGGUACGGCCGCCACUCGGACAUGAGGAUCACCCAUGUCCAUGUGAAA [AstrosExyTryA#20]”: the “apparent KD of MS2 coat protein” value by setting is: (input ligand: arginine 13.2 mM) 15.3 nM; under setting [1], 19.4 nM; under setting [3], 18.6 nM.
Regarding “GCACAUGAGGAUCACCCAUGUACAACUGAAGGAGCGAGACAGAACUCAGGUAGGUCGCAGAAUGCACAAUAGCAUACGACAUGGG [Exclusion Arginine A GF20]”, the “apparent KD of MS2 coat protein” value (input ligand: arginine 13.2 mM) was found to be 20.2 nM; the “apparent KD of MS2 coat protein” value (input ligand: none) amounted to 20.8 nM; the “apparent KD of MS2 coat protein” value under setting [1] came out at 52.1 nM; the “apparent KD of MS2 coat protein” value under setting [3] worked out at 23.8 nM; the “apparent KD of MS2 coat protein” value under setting [2] turned out to be 24.2 nM.
As to “GCACCAGGUACGGAUACCAGACAUUGCCAAUUGGGUGAACAUGAGGAUCACCCAUGUUAAGUCCCUUGGCAGCCGUACCUGGUGC [ETB NP+V+V2 #6 Same Structure]”, the “apparent KD of MS2 coat protein” value came to 11.4 nM (input ligand: arginine 13.2 mM); 10.6 nM (input ligand: none); 17.7 nM under setting [1]; 178 nM under setting [3]; 11.5 nM under setting [2].
